Assay results published in patent US20230045873A1 (ONCOONE RESEARCH AND DEVELOPMENT, published 2023).

Biological target: T1, oxMIF (recombinant human MIF immobilized into microwell plates, transforming MIF to oxMIF) (human, UniProt P14174 2-115)
T1 construct: also called immobilized MIF (oxMIF); immobilized oxMIF
Assay: ELISA on immobilized MIF (oxMIF), protein L-HRP detection, mean of triplicate
Protocol: Recombinant human MIF (1 μg/ml) diluted in PBS was immobilized into microwell plates (transforming MIF to oxMIF according to Thiele M. et al., 2015, J Immunol 2015; 195:2343-2352). After blocking, the bispecific antibodies were added to the plates at different concentrations. Bound bispecific antibodies were detected using protein L-HRP conjugate. Plates were developed by adding 3 3′5 5′tetramethylbenzidine (TMB) and chromogenic reaction was stopped with […]. OD was measured at 450 nm.
The binding curves of anti-oxMIF/CD3 bispecific antibodies C0061 and C0062 binding towards immobilized MIF (oxMIF) in an ELISA are depicted in FIG. 4. The monospecific anti-oxMIF antibody C0008 was used as positive control for oxMIF binding. EC50 values of the binding curves, which reflect rough KD estimates, were calculated by 4-parameter fit.

T1 sequence (P14174 2-115 limits assumed): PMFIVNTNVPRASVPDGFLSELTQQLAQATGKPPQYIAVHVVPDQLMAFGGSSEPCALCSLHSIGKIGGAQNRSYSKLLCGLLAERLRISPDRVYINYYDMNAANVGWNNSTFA

EC50: 0.9 nM
B1: C0061 (Anti-oxMIF Fab and anti-oxMIF/anti-CD3 BiTE fused to Fc; Fab-BiTE-Fc) (bispecific antibody, human IgG1, kappa)
heavy: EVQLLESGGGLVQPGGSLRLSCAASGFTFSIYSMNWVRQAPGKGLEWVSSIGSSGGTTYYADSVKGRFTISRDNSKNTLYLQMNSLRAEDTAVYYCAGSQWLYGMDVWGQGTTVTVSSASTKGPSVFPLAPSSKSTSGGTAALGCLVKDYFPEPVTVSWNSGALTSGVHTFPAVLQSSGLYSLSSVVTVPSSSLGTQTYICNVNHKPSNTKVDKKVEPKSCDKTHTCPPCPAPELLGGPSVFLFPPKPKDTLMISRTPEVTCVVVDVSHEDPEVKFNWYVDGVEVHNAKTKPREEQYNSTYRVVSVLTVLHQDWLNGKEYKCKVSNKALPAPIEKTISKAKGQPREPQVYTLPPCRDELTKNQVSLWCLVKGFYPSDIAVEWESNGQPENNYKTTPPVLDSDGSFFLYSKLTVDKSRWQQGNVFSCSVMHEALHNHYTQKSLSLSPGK
chain: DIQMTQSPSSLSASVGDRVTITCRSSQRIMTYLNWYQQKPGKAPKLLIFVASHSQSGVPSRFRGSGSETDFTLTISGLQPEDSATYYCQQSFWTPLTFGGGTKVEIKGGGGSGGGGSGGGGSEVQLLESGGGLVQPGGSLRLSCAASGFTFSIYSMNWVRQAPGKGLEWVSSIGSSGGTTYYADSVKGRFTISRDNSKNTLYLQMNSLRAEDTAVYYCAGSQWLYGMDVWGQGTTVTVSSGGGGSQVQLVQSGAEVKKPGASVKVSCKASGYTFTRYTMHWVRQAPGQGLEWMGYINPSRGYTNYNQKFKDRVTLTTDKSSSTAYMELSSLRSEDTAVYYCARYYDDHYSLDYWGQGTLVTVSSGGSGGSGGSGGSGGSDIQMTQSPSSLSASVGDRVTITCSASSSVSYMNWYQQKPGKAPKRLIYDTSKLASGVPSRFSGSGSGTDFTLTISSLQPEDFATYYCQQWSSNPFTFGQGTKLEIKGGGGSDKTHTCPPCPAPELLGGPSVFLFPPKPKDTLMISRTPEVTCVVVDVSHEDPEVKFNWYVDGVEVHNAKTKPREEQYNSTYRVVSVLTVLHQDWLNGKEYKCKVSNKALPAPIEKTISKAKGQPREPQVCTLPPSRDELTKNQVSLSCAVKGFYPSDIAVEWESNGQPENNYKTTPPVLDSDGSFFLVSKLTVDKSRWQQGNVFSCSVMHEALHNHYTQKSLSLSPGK
light: DIQMTQSPSSLSASVGDRVTITCRSSQRIMTYLNWYQQKPGKAPKLLIFVASHSQSGVPSRFRGSGSETDFTLTISGLQPEDSATYYCQQSFWTPLTFGGGTKVEIKRTVAAPSVFIFPPSDEQLKSGTASVVCLLNNFYPREAKVQWKVDNALQSGNSQESVTEQDSKDSTYSLSSTLTLSKADYEKHKVYACEVTHQGLSSPVTKSFNRGEC
notes: Three polypeptides; bivalent for oxMIF, monovalent for CD3
